± gives the uncertainty stated by the source.

The data set can be described thus: abundance fitness (aPCA) (normalised: wild type 0, dead -1); higher = more abundant; growth selection in yeast, the domain comes from the species named. As to conditions: Homo sapiens.
Turning to “Transcriptional activator Myb G163K, P10242”, the abundance fitness was -0.405 ± 0.11.

For the substance “Transcriptional activator Myb G163L, P10242”, the abundance fitness was -0.581 ± 0.082. With “Transcriptional activator Myb G163M, P10242” the figure was -0.484 ± 0.12. With “Transcriptional activator Myb G163P, P10242” the figure was -0.19 ± 0.1; with “Transcriptional activator Myb G163R, P10242”, -0.422 ± 0.059. Consider “Transcriptional activator Myb G163S, P10242”, for which the abundance fitness is -0.406 ± 0.078. Take “Transcriptional activator Myb G163T, P10242”: the abundance fitness was -0.595 ± 0.11. With “Transcriptional activator Myb G163V, P10242”, the abundance fitness is -0.537 ± 0.084.

“Transcriptional activator Myb G163W, P10242” came in with an abundance fitness of -0.602 ± 0.084. For “Transcriptional activator Myb G163Y, P10242”, the abundance fitness is -0.577 ± 0.46. Substance “Transcriptional activator Myb G175A, P10242” displayed an abundance fitness of -0.085 ± 0.058. Consider “Transcriptional activator Myb G175C, P10242”, for which the abundance fitness was -0.171 ± 0.1. Consider “Transcriptional activator Myb G175D, P10242”, for which the abundance fitness worked out at 0.021 ± 0.079. On to “Transcriptional activator Myb G175E, P10242”, for which the abundance fitness worked out at 0.023 ± 0.079. With “Transcriptional activator Myb G175F, P10242” the figure was -0.308 ± 0.12.

In the case of “Transcriptional activator Myb G175H, P10242”, the abundance fitness came to 0.101 ± 0.17. On to “Transcriptional activator Myb G175I, P10242”, for which the abundance fitness was -0.961 ± 0.35. “Transcriptional activator Myb G175K, P10242”: the abundance fitness was -0.036 ± 0.095. With “Transcriptional activator Myb G175L, P10242”, the abundance fitness is -0.102 ± 0.077. “Transcriptional activator Myb G175M, P10242” displayed an abundance fitness of -0.283 ± 0.098. “Transcriptional activator Myb G175N, P10242”: the abundance fitness is -0.197 ± 0.18. In turn, “Transcriptional activator Myb G175P, P10242” registered an abundance fitness of -0.594 ± 0.11. The substance “Transcriptional activator Myb G175Q, P10242” gave an abundance fitness of -0.315 ± 0.12. Substance “Transcriptional activator Myb G175R, P10242” gave an abundance fitness of -0.281 ± 0.053.

Substance “Transcriptional activator Myb G175S, P10242” returned an abundance fitness of -0.13 ± 0.074.

In turn, “Transcriptional activator Myb G175V, P10242” returned an abundance fitness of -0.409 ± 0.066. With “Transcriptional activator Myb G175W, P10242” the figure was -0.168 ± 0.077; with “Transcriptional activator Myb G175Y, P10242”, -0.256 ± 0.14. Take “Transcriptional activator Myb G197C, P10242”: the abundance fitness is 0.032 ± 0.098. Turning to “Transcriptional activator Myb G197D, P10242”, the abundance fitness was -0.09 ± 0.13. With “Transcriptional activator Myb G197F, P10242” the figure was -0.148 ± 0.39. “Transcriptional activator Myb G197H, P10242” returned an abundance fitness of -0.395 ± 0.21. Turning to “Transcriptional activator Myb G197I, P10242”, the abundance fitness is -0.717 ± 0.24. As for “Transcriptional activator Myb G197K, P10242”, the abundance fitness was -0.124 ± 0.12. Substance “Transcriptional activator Myb G197L, P10242” displayed an abundance fitness of -0.34 ± 0.083.

For “Transcriptional activator Myb G197M, P10242”, the abundance fitness was -0.334 ± 0.12.

In turn, “Transcriptional activator Myb G197N, P10242” came in with an abundance fitness of 0.083 ± 0.16. For the substance “Transcriptional activator Myb G197P, P10242”, the abundance fitness is -0.13 ± 0.1. For the substance “Transcriptional activator Myb G197R, P10242”, the abundance fitness was -0.087 ± 0.06.

With “Transcriptional activator Myb G197S, P10242”, the abundance fitness turned out to be 0.01 ± 0.071.

“Transcriptional activator Myb G197T, P10242” returned an abundance fitness of -0.15 ± 0.092. “Transcriptional activator Myb G197W, P10242”: the abundance fitness was -0.229 ± 0.086. Turning to “Transcriptional activator Myb G197Y, P10242”, the abundance fitness is -0.265 ± 0.14. Substance “Transcriptional activator Myb H159R, P10242” yielded an abundance fitness of -0.243 ± 0.18. As for “Transcriptional activator Myb H159Y, P10242”, the abundance fitness is -0.007 ± 0.12. Take “Transcriptional activator Myb H184A, P10242”: the abundance fitness is -0.732 ± 0.07. As to “Transcriptional activator Myb H184C, P10242”, the abundance fitness is -0.799 ± 0.084.

In turn, “Transcriptional activator Myb H184D, P10242” returned an abundance fitness of -0.82 ± 0.077. The substance “Transcriptional activator Myb H184E, P10242” yielded an abundance fitness of -0.783 ± 0.1. Turning to “Transcriptional activator Myb H184F, P10242”, the abundance fitness is -0.488 ± 0.075. “Transcriptional activator Myb H184G, P10242”: the abundance fitness is -0.855 ± 0.054. Substance “Transcriptional activator Myb H184L, P10242” displayed an abundance fitness of -0.623 ± 0.052.

Take “Transcriptional activator Myb H184M, P10242”: the abundance fitness is -0.623 ± 0.061. The figure for “Transcriptional activator Myb H184N, P10242” is -0.817 ± 0.067. “Transcriptional activator Myb H184P, P10242” displayed an abundance fitness of -0.81 ± 0.098.

Substance “Transcriptional activator Myb H184Q, P10242” came in with an abundance fitness of -0.598 ± 0.08. “Transcriptional activator Myb H184R, P10242”: the abundance fitness is -0.055 ± 0.062.

The substance “Transcriptional activator Myb H184S, P10242” came in with an abundance fitness of -0.854 ± 0.067. Substance “Transcriptional activator Myb H184T, P10242” had an abundance fitness of -1.07 ± 0.095. With “Transcriptional activator Myb H184V, P10242”, the abundance fitness was -0.684 ± 0.048.

“Transcriptional activator Myb H184W, P10242” returned an abundance fitness of -0.298 ± 0.073. As for “Transcriptional activator Myb H184Y, P10242”, the abundance fitness was -0.001 ± 0.052. Take “Transcriptional activator Myb I154A, P10242”: the abundance fitness is -0.215 ± 0.054.

As for “Transcriptional activator Myb I154C, P10242”, the abundance fitness is -0.328 ± 0.093.

Substance “Transcriptional activator Myb I154D, P10242” registered an abundance fitness of -0.5 ± 0.12. With “Transcriptional activator Myb I154E, P10242” the figure was -0.5 ± 0.076. In the case of “Transcriptional activator Myb I154F, P10242”, the abundance fitness is -0.914 ± 0.13. With “Transcriptional activator Myb I154G, P10242” the figure was -0.777 ± 0.057; with “Transcriptional activator Myb I154H, P10242”, -0.59 ± 0.12. Substance “Transcriptional activator Myb I154K, P10242” had an abundance fitness of 0.008 ± 0.095. The substance “Transcriptional activator Myb I154L, P10242” showed an abundance fitness of -0.187 ± 0.055. With “Transcriptional activator Myb I154M, P10242” the figure was -0.296 ± 0.085. The figure for “Transcriptional activator Myb I154N, P10242” is -1.14 ± 0.3; for “Transcriptional activator Myb I154P, P10242” it is -0.807 ± 0.12. The substance “Transcriptional activator Myb I154Q, P10242” showed an abundance fitness of -0.216 ± 0.11. On to “Transcriptional activator Myb I154R, P10242”, for which the abundance fitness was -0.23 ± 0.046. As for “Transcriptional activator Myb I154S, P10242”, the abundance fitness was -0.527 ± 0.062. The figure for “Transcriptional activator Myb I154T, P10242” is -0.185 ± 0.077; for “Transcriptional activator Myb I154V, P10242” it is -0.03 ± 0.05. In turn, “Transcriptional activator Myb I154Y, P10242” returned an abundance fitness of -0.65 ± 0.13. With “Transcriptional activator Myb I155A, P10242” the figure was -0.503 ± 0.065.

In the case of “Transcriptional activator Myb I155C, P10242”, the abundance fitness is -0.346 ± 0.095. “Transcriptional activator Myb I155D, P10242” showed an abundance fitness of -0.779 ± 0.15.

“Transcriptional activator Myb I155E, P10242” yielded an abundance fitness of -0.521 ± 0.092. On to “Transcriptional activator Myb I155F, P10242”, for which the abundance fitness was -0.467 ± 0.14. “Transcriptional activator Myb I155G, P10242”: the abundance fitness was -0.894 ± 0.064. With “Transcriptional activator Myb I155H, P10242” the figure was -1.04 ± 0.21.

“Transcriptional activator Myb I155K, P10242” had an abundance fitness of -0.736 ± 0.11. With “Transcriptional activator Myb I155L, P10242” the figure was -0.068 ± 0.069; with “Transcriptional activator Myb I155M, P10242”, -0.178 ± 0.12.

“Transcriptional activator Myb I155N, P10242” gave an abundance fitness of -0.645 ± 0.17. With “Transcriptional activator Myb I155P, P10242”, the abundance fitness is -0.945 ± 0.14. The substance “Transcriptional activator Myb I155Q, P10242” gave an abundance fitness of -0.786 ± 0.13. On to “Transcriptional activator Myb I155R, P10242”, for which the abundance fitness is -0.935 ± 0.067. On to “Transcriptional activator Myb I155S, P10242”, for which the abundance fitness was -0.916 ± 0.13.

The record behind these values is the Human Domainome abundance scans (Beltran et al. 2025).
